The values below are quoted from earlier work in paper PMC8616177.

Read-outs that look alike come from different tables or passages of the source.

In data set [1] the target is EGFR (Homo sapiens) (UniProt P00533).
Data set [2] shares this target. This is another data set of the same source.

With GE11, the dissociation constant (Kd) in the data set with EGFR (Homo sapiens) [1] is 22 nM.
With EGF (from UniProt P01133), the Kd in the data set with EGFR (Homo sapiens) [2] was 1.5 nM.

As usually defined, the Kd is the equilibrium constant for the complex coming apart.
